Data on eight molecules can be found in patent publication US20260085097A1 (TEXAS A AND M UNIVERSITY SYSTEM, published 2026).

Where two headings read alike, the source gives them in different places.

One may read the EC50 (read off the curve) as the concentration at which the effect is half-maximal. Read a low EC50 (read off the curve) as greater potency. By EC50 is commonly meant the concentration giving half of the maximal effect. Higher therefore signals a less potent agent. By koff is commonly meant the first-order rate constant of dissociation.

In experiment [1] the target is Shiga toxin 2a (Stx2a) holotoxin (Escherichia coli (Shiga …, UniProt P09385 23-319; P09386 20-89). Briefly: cell-based or functional assay.
Target sequence in this assay (P09385 23-319, chain 1 of 2): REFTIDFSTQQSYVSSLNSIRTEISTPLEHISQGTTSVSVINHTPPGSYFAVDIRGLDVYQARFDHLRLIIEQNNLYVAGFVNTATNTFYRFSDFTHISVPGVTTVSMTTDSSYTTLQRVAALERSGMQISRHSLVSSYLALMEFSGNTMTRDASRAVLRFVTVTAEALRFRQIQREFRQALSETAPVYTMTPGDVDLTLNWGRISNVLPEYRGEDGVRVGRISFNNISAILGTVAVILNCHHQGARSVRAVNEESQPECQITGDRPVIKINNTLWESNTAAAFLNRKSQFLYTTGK
Target sequence in this assay (P09386 20-89, tags left off, chain 2 of 2): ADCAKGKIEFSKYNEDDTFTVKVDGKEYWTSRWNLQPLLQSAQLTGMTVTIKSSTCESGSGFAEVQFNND
The target in experiment [2] is T1, Shiga toxin 2a (Stx2a) holotoxin (Escherichia coli (Shiga …, UniProt P09385 23-319; P09386 20-89).
T1 sequence (P09385 23-319 limits assumed, one chain of several): as the sequence (P09385 23-319, chain 1 of 2) above
Experiment [3] deals with T1, Shiga toxin 2a (Stx2a) holotoxin. In words: cell-based or functional assay. The source holds these as a separate data set.
Experiment [4] has as its target T2, Stx2a-A1 fragment with a C-terminus 6xHis tag (Escherichia coli (Shiga …, UniProt P09385 23-272)). In words: ELISA at pH 6.0, plate coated with 4 ug/mL Stx2a-A1.
Experiment [5] addresses T1, Shiga toxin 2a (Stx2a) holotoxin. Briefly: BLI (BLItz), biotinylated Stx2a holotoxin on streptavidin sensor, apparent KD.
The target in experiment [6] is T2, Stx2a-A1 fragment with a C-terminus …. Briefly: ELISA at pH 7.4, plate coated with 4 ug/mL Stx2a-A1.
Experiment [7] deals with T1, Shiga toxin 2a (Stx2a) holotoxin. In words: screen of E. coli lysates for Stx2a binding after off-rate selection.
Experiment [8] shares this target. Briefly: ELISA, plate coated with full-length Stx2a.
Target sequence in this assay (P09385 23-319 limits assumed, one chain of several): as the sequence (P09385 23-319, chain 1 of 2) above
For experiment [9] the target is unchanged. This is another data set of the same source.
Target sequence in this assay (P09385 23-319 limits assumed, one chain of several): as the sequence (P09385 23-319, chain 1 of 2) above
The target is the same in experiment [10]. In words: BLI (BLItz), biotinylated Stx2a holotoxin on streptavidin sensor.
Target sequence in this assay (P09385 23-319 limits assumed, one chain of several): as the sequence (P09385 23-319, chain 1 of 2) above
Experiment [11] shares this target. This is another data set of the same source.
Target sequence in this assay (P09385 23-319 limits assumed, one chain of several): as the sequence (P09385 23-319, chain 1 of 2) above
Experiment [12] has the same target. The source holds these as a separate data set.
Target sequence in this assay (P09385 23-319 limits assumed, one chain of several): as the sequence (P09385 23-319, chain 1 of 2) above

T2 sequence (P09385 23-272, tags left off): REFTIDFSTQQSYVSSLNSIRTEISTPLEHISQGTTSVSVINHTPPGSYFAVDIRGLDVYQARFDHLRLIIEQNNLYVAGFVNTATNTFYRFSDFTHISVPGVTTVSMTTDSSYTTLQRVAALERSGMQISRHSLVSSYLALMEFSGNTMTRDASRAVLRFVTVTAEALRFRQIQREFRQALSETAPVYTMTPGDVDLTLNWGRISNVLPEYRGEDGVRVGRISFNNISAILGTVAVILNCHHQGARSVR

B1: DARPin #16 (designed binder)
chain: DLGKKLLEAARAGQDDEVRILMANGADVNAADPAGWTPLHLAACYGHLEIVGVLLKNGADVNALDWGGWTPLHLAAVIGHLEIVGVLLKHGADVNATDLSGWTPLHLAAFRGHLEIVEVLLKHGADVNAQDKFGKTAFDISIDNGNEDLAEILQSSS
As to B1, the “EC50 of Stx2a neutralization, Vero E6 toxin challenge assay (cell viability)” value (shortened to “EC50 of Stx2a neutralization … (cell viability)”) in experiment [1] is greater than 1000 nM.

B2: DARPin HT (designed binder)
chain: MGSSHHHHHHSSGLVPRGSHMEQKLISEEDLGSDLGKKLLEAARAGQDDEVRILMANGADVNAGDPFGFTPLHLAAMFGHLEIVEVLLKNGADVNAHDEYGFTPLHLAAVVGHLEIVEVLLKNGADVNACDNQGGTPLHLAAHTGHLEIVEVLLKHGADVNAQDKFGKTAFDISIDNGNEDLAEILQSSS
For B2, in [2], the “EC50 (read off the curve)” value was roughly 1 nM. For the same molecule, the “EC50 of Stx2a neutralization, Vero E6 toxin challenge assay” value in [3] was 1900 nM. The EC50 in experiment [4] and in experiment [6] was 1.2 nM each time. Moreover, in [5], the Kd worked out at 409 nM.

B3: DARPin Off-rate #27 (designed binder)
chain: MGSSHHHHHHSSGLVPRGSHMEQKLISEEDLGSDLGKKLLEAARAGQDDEVRFLMANGADVNAGDPFGFTPLHLAAMFGHLEIVEVLLKNGADENAHEEYGFTPLHLAAVVGHLEIVEVLLKNGADVNACDNQGGTPLHLAAHTGHLEIVEVLLKHGADVNAQDKFGKTAFDISIDNGNEDLAEILQSSS
For B3, in experiment [7], the binding result is on record as “binds”.

B4: DARPin RI (designed binder)
chain: MGSSHHHHHHSSGLVPRGSHMEQKLISEEDLGSDLGKKLLEAARAGQDDEVRILMANGADVNAGDPFGFTPLHLAAMFGHLEIVEVLLKNGADVNAHDEYGFTPLHLAAVVGHLEIVEVLLKNGADVNACDNQGGTPLHLAARIGHLEIVEVLLKHGADVNAQDKFGKTAFDISIDNGNEDLAEILQSSS
As to B4, in [2], the “EC50 (read off the curve)” value is roughly 1 nM. The “fold improved toxin neutralization activity in the Vero E6 toxin challenge assay” value in [3] is roughly 4 fold. Moreover, the “fold improved toxin-binding ability in ELISA (against parent 10B)” value in experiment [8] is roughly 8 fold.

B5: DARPin Off-rate #28 (designed binder)
chain: MGSSHHHHHHSSGLVPRGSHMEQKLISEEDLGSDLGKKLLEAARAGQDDEVRILMANGADVNAGDPFGFTPLHLAAMYGHLEIVEVLLKNGADVNAHEEYGFTPLHLAAVVGHLEIVEVLLKNGADVNACDNQGGTPLHLAARIGHLEIVEVLLKHGADVNAQDKFGKTAFDISIDNGNEDLAEILQSSS
As for B5, the binding result in [7] is recorded as “binds”.

B6: DARPin 10B (designed binder)
chain: MGSSHHHHHHSSGLVPRGSHMEQKLISEEDLGSDLGKKLLEAARAGQDDEVRILMANGADVNAGDPFGFTPLHLAAMFGHLEIVEVLLKNGADVNAHDEYGFTPLHLAAVVGHLEIVEVLLKNGADVNACDNQGGTPLHLAAVDGHLEIVEVLLKHGADVNAQDKFGKTAFDISIDNGNEDLAEILQSSS
Take B6: in experiment [9], the “EC50 (read off the curve)” value was roughly 4 nM. The “EC50 of Stx2a neutralization, Vero E6 toxin challenge assay” value in [3] is 2700 nM. Besides, the “EC50 of Stx2a neutralization … (cell viability)” value in experiment [3] is greater than 1000 nM. For the same molecule, the Kd in [10] worked out at 3540 nM; in experiment [11] it was 3540 nM; in [5] it was 3450 nM. For the same molecule, the half-maximal effective concentration (EC50) came out at 3.8 nM in experiment [4] and 3.7 nM in experiment [6].

B7: DARPin Off-rate #26 (designed binder)
chain: MGSSHHHHHHSSGLVPRGSHMEQKLISEEDLGSDLGKKLLEAARAGQDDEVRILMANGADVNAGDPFGFTPLHLAAMFGHLEIVEVLLKNGADVNAHEEYGFTPLHLAAVVGHLEIVEVLLKNGADVNACDNQGGTPLHLASHTGHLEIVEVLLKHGADVNAQDKFGKTAFDISIDTGNEDLAEILQSSS
Take B7: the binding result in experiment [7] was “binds”.

B8: DARPin #3 (designed binder)
chain: MGSSHHHHHHSSGLVPRGSHMEQKLISEEDLGSDLGKKLLEAARAGQDDEVRILMANGADVNACDSNGRTPLHLAAVRGHLEIVEVLLKNGADVNAWDVIGKTPLHLAADGGHLEIVEVLLKNGADVNAWDLIGRTPLHLAALDGHLEIVEVLLEHGADVNAYDRPGHTPLHLAARRGHLEIVEVLLKYGADVNAQDKFGKTAFDISIDNGNEDLAEILQSSS
B8: in experiment [3], the “EC50 of Stx2a neutralization … (cell viability)” value was greater than 1000 nM. Further, the koff in [12] came out at 0.0438 s⁻¹. In addition, the Kd turned out to be 8.83 nM in [10] and 8.8 nM in experiment [5].
